Results reported in paper PMC3597719.

Molecular target: NS1 protein expressed in yeast cells (UniProt P14340)

“NS1 protein expressed in yeast cells (from UniProt P14340 776-1127) (natural protein)” showed a stoichiometry N of 2.
